This data set concerns the molecule itself. In words: cryo-EM structure; single-particle cryo-EM of the channel reconstituted in MSP1E3D1/SoyPC nanodiscs; 50 mM Tris pH 8.0, 150 mM NaCl; C5 symmetry imposed.

B1: Malus domestica VCCN1, N-terminally truncated "wild-type" construct (natural protein)
chain: MPNPSPPSSSSPVQTLISILRIIPDWSDRTQERGMRQHRTLYDHEKWMHHRSSYRHLRHLLSSLSSRVILSLIPPVIAFTLVAVVIASYNTAVALDLLPGIFPLLRSSSLPYQLTAPALALLLVFRTEASYSRFEEGRKAWTEVIAGANDFARQIISSVETSGDAQLKKALLQYIVAFPVALKCHVIYGSDIARDLQNLLEVDDLLVVLNSKHRPGCIIQFISRSLQLLKLEESRRIMLQSKISCFHEGIGICEQLIGTPIPLSYTRLTSRFLVLWHLTLPIILWDDCHWIVVPATFISAASLFCIEQVGVLIEEPFPMLALDDLCNSVRNNVQEALASEKLIRARLAAKGRIQSEQQFQNGQPRPENLYFQ
Take B1: the stoichiometry N – broadly, the number of molecules, sites or subunits per partner or assembly – is 5.

For the origin of these results see PMC9076864, “Cryo-EM structures of thylakoid-located voltage-dependent chloride channel VCCN1” (Nature Communications, 2022).
